Values belong to the substance of their own block, whether it stands above or below them.
Columns and labels:
[1] = target: purified porcine gastric mucin (pPGM) (porcine); experiment: AFM single-molecule force spectroscopy; Gal-3 covalently attached to the AFM tip, pPGM covalently attached to the glass slide; PBS pH 7.4; force-volume mode
Q9RGN5 = experiment: AFM single-molecule force spectroscopy; MUB covalently attached to both the AFM tip and the glass slide; PBS pH 7.4; force-volume mode; repeated after adding free MUB (0.05 mg/mL) or anti-Mub antibody (0.05 mg/mL); details: other: AFM single-molecule force spectroscopy
[2] = target: mucus-binding protein (MUB) from Lactobacillus reuteri ATCC 53608 (Lactobacillus reuteri ATCC 53608) (UniProt Q9RGN5); experiment: as above
[3] = target: purified porcine gastric mucin (pPGM) (porcine); experiment: AFM single-molecule force spectroscopy; MUB covalently attached to the AFM tip, pPGM covalently attached to the glass slide; PBS pH 7.4; force-volume mode, 2 um/s, 1024 force-distance curves; repeated on the same region after adding free sugars or anti-Mub antibody (0.05 mg/mL)

binding energy [1]: 0.79 aJ
energy (integration of the adhesive peaks) [1]: 3.08 aJ
Substance: Galectin-3 (Gal-3) (from UniProt P17931 1-250) (natural protein)

Substance: mucus-binding protein (MUB) from Lactobacillus reuteri ATCC 53608
percent of force curves with unfolding events (Q9RGN5): the numbers of unfolding events in the force volume maps were 71% of the 1024 force curves

modal value of the rupture adhesion force [2]: 209 pN
modal value of the rupture adhesion force [3]: 380 pN
modal value of the rupture adhesion force (PBS, before the antibody) [3]: 482 pN
Substance: mucus-binding protein (MUB) from Lactobacillus reuteri ATCC 53608 (from UniProt Q9RGN5 1-3269) (natural protein)

Reference: article PMC5133854
